In paper PMC3098868 one finds relative affinity (IC50 insulin/IC50 analogue x 100%) (% of human insulin) and fold difference in relative binding potency, IR-B over IR-A data, which are given here for nine substances.

Experiment [1] addresses human insulin receptor, isoform B (holoreceptor) (human) (UniProt P06213). Kind of experiment: radioligand binding; scintillation proximity assay (SPA): competition of [125I]TyrA14-labelled insulin binding to solubilized holoreceptor, with IR-specific antibody 83-7; analogues taken directly from yeast supernatant after conversion; four-parameter logistic model; affinity relative to human insulin within the same plate [IC50(insulin)/IC50(analogue) x 100%]; near physiological pH. Background: In a scintillation proximity assay essentially only radioactivity close to the scintillant gives light.

Experiment [2] has as its target human insulin receptor, isoform A (holoreceptor) (human) (UniProt P06213). The experiment is described as above.
Experiment [3] deals with human insulin receptor, isoform B (holoreceptor) (human) (UniProt P06213). Briefly: radioligand binding; scintillation proximity assay (SPA): competition of [125I]TyrA14-labelled insulin binding to solubilized holoreceptor, with IR-specific antibody 83-7; purified ligand (human insulin standard, tracer, purified unglycosylated [A8H, B25N]); near physiological pH.

In the case of [B25N] desB30 insulin analogue (ligand), the relative affinity (IC50 insulin/IC50 analogue x 100%) (% of human insulin) in experiment [1] is 8; in experiment [2] it was 4.
Regarding “[A8H, B25H, B27D] desB30 insulin analogue (ligand)”, the figures for the relative affinity (IC50 insulin/IC50 analogue x 100%) (% of human insulin) in experiment [1] and in experiment [2] were 82 and 43, respectively.
For “[A8H, B25H, B27E] desB30 insulin analogue (ligand)”, in that order: 140 and 67.
For “[A8H, B25N, B27E] desB30 insulin analogue (ligand)”, the relative affinity (IC50 insulin/IC50 analogue x 100%) (% of human insulin) in experiment [1] came out at 57; in experiment [2], 15.
In the case of “[A8H, B25A, B27E] desB30 insulin analogue (ligand)”, the relative affinity (IC50 insulin/IC50 analogue x 100%) (% of human insulin) turned out to be 24 in experiment [1] and 10 in experiment [2].
The corresponding values for [A8H] desB30 insulin analogue (ligand) are 308 and 308.
As for “[A8H, B25N, B27D] desB30 insulin analogue (ligand)”, the relative affinity (IC50 insulin/IC50 analogue x 100%) (% of human insulin) in experiment [1] was determined as 38; in experiment [2], 10.
On to “[A8H, B25N] desB30 insulin analogue (ligand)”, for which the relative affinity (IC50 insulin/IC50 analogue x 100%) (% of human insulin) in experiment [1] was determined as 44; in experiment [2] it was 22. In experiment [3], this substance returned a fold difference in relative binding potency, IR-B over IR-A of 2 fold.
For “[A8H, B25Y, B27E] desB30 insulin analogue (ligand)”, the relative affinity (IC50 insulin/IC50 analogue x 100%) (% of human insulin) stood at 459 in experiment [1] and 714 in experiment [2].
